B1: Lys_H8 (designed binder)
chain: GSVKVKFVMCGEEKEVDTSKIITVKRTGKEVDFLYDDNGKNGYGTVYEKDAPKELLDMLARAEREKKL
B2: Lys_H4 (designed binder)
chain: GSVKVKFFWNGEEKEVDTSKIVWVKRAGKCVLFIYDDNGKNGYGDVTEKDAPKELLDMLARAEREKKL
B3: Lys_B3 (designed binder)
chain: GSVKVKFDLCGEEKEVDTSKIVYVARDGKTVLFMYDDNGKSGRGEVSEKDAPKELLDMLARAEREKKL

biological target: T1, lysozyme (Gallus gallus (Chicken), UniProt P00698 19-147); experiment: Biacore, preliminary data
T1 construct: also called Lysozyme (14.3 kDa)
T1 sequence (P00698 19-147 limits assumed, form in doubt): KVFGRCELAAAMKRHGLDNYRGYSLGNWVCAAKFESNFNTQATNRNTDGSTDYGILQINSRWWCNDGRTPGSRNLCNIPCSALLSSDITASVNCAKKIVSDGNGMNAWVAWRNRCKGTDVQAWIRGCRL

Compared with B1, B2 is 8.3-fold lower in Kd: roughly 25 nM for the first, roughly 3 nM for the second. The second binds more tightly here.

Work on B3 yielded a Kd of roughly 15 nM.

Reference: US20100145008A1 (published 2010)
